Measurements as given in patent US20260035692, “METHOD FOR SCREENING FOR APTAMER BY SEQUENCING” (GeneMind Biosciences Co., Ltd., published 2026).

Columns and labels:
Settings in all cases: tags: Alexa Fluor 647 label (SA-alexa647); chain copies: 4
streptavidin (SA) [1] = molecular target: T1, streptavidin (SA) (UniProt P22629 P22629:25-183); assay: flowcell clusters in mixture library; signal graded with 1.95-500 nM SA-alexa647, weak below 31 nM
Description: (3) Into the four flow channels of the sequencing flowcell (L1, L2, L3, and L4 respectively), SA-alexa647 at concentrations of 500 nmol/L, 125 nmol/L, 31.25 nmol/L, and 1.95 nmol/L was introduced, respectively, and the flowcell was incubated for 30 minutes for in situ hybridization. After incubation, 300 μL of PBST was used to wash the channels to remove unreacted fluorescently labeled SA-alexa647.

streptavidin (SA) [2] = molecular target: T1, streptavidin (SA); assay: 0 of 2808 (30% mix) and 2 of 575 (10% mix) target-bound clusters were reverse strand
streptavidin (SA) [3] = molecular target: T1, streptavidin (SA); assay: NY selection: no signal with 500 nM SA alone
Description: (3) After sequencing was completed, target protein SA at a concentration of 500 nmol/L and a combination of target proteins SA and 3RA at 500 nmol/L each were sequentially introduced into the flowcell, followed by incubation. After each incubation was completed, 300 μL of PBST was used to wash the channels. After washing was completed, a 640 nm laser was used for excitation, and the surface of the solid carrier was imaged to collect the corresponding emission signals. Before introducing the next target at each time, the channels were washed with 750 μL of NaOH to remove the previously bound target.

T1 sequence (P22629 25-183, one chain of several): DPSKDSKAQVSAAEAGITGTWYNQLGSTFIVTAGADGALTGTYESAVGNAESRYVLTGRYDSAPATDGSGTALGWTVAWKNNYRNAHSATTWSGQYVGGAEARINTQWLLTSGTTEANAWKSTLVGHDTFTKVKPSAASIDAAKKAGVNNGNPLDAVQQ

B1: tagged SA-positive aptamer (GGCTAC tag) (ssDNA)
DNA: GGCTACAGCAGCACAGAGGTCAGATGGACGCACCGATCGCAGGTTCCGAAATGACTACTTGGTTGCCTATGCGTGCTACCGTGAAGGCTAC
Q: Does B1 bind (streptavidin (SA) [1])?
A: binds

B2: SA-positive aptamer reverse strand (ssDNA)
DNA: TTCACGGTAGCACGCATAGGCAACCAAGTAGTCATTTCGGAACCTGCGATCGGTGCGTCCATCTGACCTCTGTGCTGCT
modifications: [NONE]
Q: Does B2 bind (streptavidin (SA) [2])?
A: no binding

B3: 3RA positive aptamer sequence 4 (ssDNA)
DNA: AATGGTCCAGCACTCCACGCATAACGAATAGGTCCTAAACGAGGGGTCAGGGAAGTCGCCGGTTATGCGTGCTACCGTGAA
Q: Does B3 bind (streptavidin (SA) [3])?
A: no binding

B4: 3RA positive aptamer sequence 2 (ssDNA)
DNA: CGAAGTTCAGCACTCCACGCATAGCCCTCGGAGGTCTACGAGAATGCCTACAGCCCTGTGCCCTATGCGTGCTACCGTGAA
Q: Does B4 bind (streptavidin (SA) [3])?
A: no binding

B5: 3RA positive aptamer sequence 3 (ssDNA)
DNA: CACGGTAGCACGCATAACGCCGAGTTCCATTATAAAGTCCGCGCCCGACTACCCCCGTTATGCGTGGAGTGCTGGACATGC
Q: Does B5 bind (streptavidin (SA) [3])?
A: no binding

B6: 3RA positive aptamer sequence 1 (ssDNA)
DNA: TCACGGTAGCACGCATAGGGGAGGATTCCGACTAAGTTTCCGTCGCATGAGCGTTGCTATGCGTGGAGTGCTGAAGTTGGC
Q: Does B6 bind (streptavidin (SA) [3])?
A: no binding
